Measurements: patent US20090148907A1, “NOVEL FRUCTOFURANOSIDASE ACTIVITY FOR OBTAINING THE PREBIOTIC OLIGOSACCHARIDE 6-KESTOSE” (CONSEJO SUPERIOR DE INVESTIGACIONES CIENTIFICAS, priority 2005, published 2009)

How the values were obtained:
Type in all cases: biochemical
[1] = Fructofuranosidase activity at different pH and temperatures; conditions: solution of pure protein, on sucrose
Procedure: The fructofuranosidase activity was assayed at different pH and temperatures. Maximum activity levels were obtained in a pH range comprised, between 5 and 6 units at 50° C. and at a temperature of 40 and 55° C.
FIG. 3 indicates the enzymatic activity in function of the pH and of the temperature, showing the corresponding maximums. The assays were performed on sucrose using a solution of pure protein. 100% corresponds to an activity of 5.59 U/ml. FIG. 3A: fructofuranosidase activity was determined at different pHs (3-9 pH units), an assay temperature of 50° C. and sodium citrate, sodium phosphate and HCl-Tris buffer (all of them 100 mM) for the pH range of 3-4.5, 5.0-7.5 and 8.0-9.0, respectively. FIG. 3B: the temperature assay (30-70° C.) was performed in 50 mM sodium phosphate pH 5.5.

[2] = biological target: T1, fructofuranosidase of S. occidentalis (pure enzyme F-3) (Schwanniomyces occidentalis, UniProt P24133); test: Transfructosidase (transglycosylation) activity of pure enzyme F-3 on sucrose, HPLC; conditions: after 144 hours at 50° C, high sucrose concentration
T1 construct: the enzyme object of the invention is extracellularly released; endogenous in cells; host or cells: Schwanniomyces occidentalis culture supernatant; concentrated (F-1), then DEAE-Sephacel at pH 7 (F-2) and at pH 5 (F-3)
T1 sequence (P24133 whole entry, looked up): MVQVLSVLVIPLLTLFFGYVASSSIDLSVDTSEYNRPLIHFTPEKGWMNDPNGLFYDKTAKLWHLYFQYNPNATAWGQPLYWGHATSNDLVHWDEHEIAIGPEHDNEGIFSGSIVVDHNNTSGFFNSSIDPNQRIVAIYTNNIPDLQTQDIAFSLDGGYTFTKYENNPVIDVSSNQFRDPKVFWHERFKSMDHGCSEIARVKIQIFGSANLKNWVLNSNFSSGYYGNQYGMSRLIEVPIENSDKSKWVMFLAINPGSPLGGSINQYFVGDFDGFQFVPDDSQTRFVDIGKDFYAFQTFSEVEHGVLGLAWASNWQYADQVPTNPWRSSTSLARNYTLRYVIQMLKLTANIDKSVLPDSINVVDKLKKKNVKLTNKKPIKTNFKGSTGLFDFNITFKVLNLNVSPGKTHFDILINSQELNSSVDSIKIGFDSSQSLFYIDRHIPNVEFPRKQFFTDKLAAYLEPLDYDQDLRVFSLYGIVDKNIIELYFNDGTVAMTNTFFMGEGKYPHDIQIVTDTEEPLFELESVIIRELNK
Procedure: The transglycosylation activity of the pure enzyme (fraction F-3) was assayed. A reaction was prepared using a high concentration of sucrose (510 g/l) and a final enzymatic activity in the reaction mixture of approximately 0.5 U/ml. […] It is seen that the profile of the obtained products is very similar in both cases, specifically the 6-kestose/1-kestose ratio that was obtained was 3.3.
After 144 hours of reaction, 42.6 g/l of FOS were obtained. The total percentage (w/w) of fructooligosaccharides was 8.4% this value being with respect to the total weight of carbohydrates in the medium.
A high concentration solution of sucrose ([…]) in 0.2 M sodium acetate buffer pH 5.6 was prepared. The fructofuranosidase was added until a final concentration in the reaction mixture of 0.5 U/ml (one unit U is the enzymatic activity corresponding to releasing a micromole of reducing sugars per minute, using 100 g/l of sucrose as substrate, in 0.2 M sodium acetate buffer pH 5.6, at 50° C.). The reaction mixture was incubated for 144 hours at 50° C., with orbital stirring at 700 rpm. Aliquots were extracted at different times, incubated for 5 minutes at 80° C. to inactivate the enzyme, diluted 1:2 (v/v) with water centrifuged for 5 minutes at 6000 rpm in an eppendorf tube with a 0.45 μm filter and analyzed by HPLC liquid chromatography. The profile of the products formed is seen in FIG. 7. Two trisaccharides were obtained: a majority trisaccharide, identified as 6-kestose, and another minority trisaccharide, identified as 1-kestose. At the final reaction time (144 h), the composition of the system was: 12.7% fructose, 14.80/glucose. 64.1% sucrose, 2.4% 1-kestose and 5.9% 6-kestose).

[3] = Fructofuranosidase activity of fractions during purification; conditions: eluted at 0.2 M of salt, DEAE-Sephacel pH 5
Procedure: The cell free fraction was obtained by centrifugation (F-0) of a culture of S. occidentalis ATCC26077 grown at 29° C. and 235 rpm. Fructofuranosidase activity was assayed in the latter, determining the glucose release on different substrates. A colorimetric assay and the standard methodology were used. The released glucose was quantified using the glucose oxidase-peroxidase coupled reaction: 0.4 ml of the solution to be determined was mixed with 0.1 ml of A:B (20:1) solution (A: 0.85 U/ml glucose oxidase, 0.40 U/ml peroxidase in sodium phosphate buffer pH 5; B: 0.6% O-dianisidine). It was incubated for 30 minutes at 37° C. and spectrophotometrically quantified at 450 nm. A standard glucose curve (0 to 100 μg/ml) was used. The fructofuranosidase activity unit is defined in μmol/ml min of glucose determined in the described conditions.
For the purification of the enzyme, 2 liters of extracellular fraction of S. occidentalis, with a fructofuranosidase activity of 0.58 U/ml, were used to begin. The following method was used:
1) Concentration of the extracellular fraction using a tangential filtration system (30 kDa fitter) followed by dialysis against 20 mM HCl-Tris pH 7 (buffer A) for 2 hours at a temperature of 4° C. […]
3) Ion exchange chromatography to pH 5. […] The fructofuranosidase activity determined as previously indicated eluted at 0.2 M of salt and was 0.33 U (F-3).

B1: F-3: purified fructofuranosidase of S. occidentalis with transfructosidase activity, SEQ. ID. NO: 1, 535 amino acids (protein, listed as Debaryomyces occidentalis)
chain: MVQVLSVLVIPLLTLFFGYVASSSIDLSVDTSEYNRPLIHFTPEKGWMNDPNGLFYDKTAKLWHLYFQYNPNATAWGQPLYWGHATSNDLVHWDEHEIAIGPEHDNEGIFSGSIVVDHNNTSGFFNSSIDPNQRIVAIYTNNIPDLQTQDIAFSLDGGYTFTKYENNPVIDVSSNQFRDPKVFWHEDSNQWIMVVLKSQEYKIQIFGSANLKNWVLNSNFSSGYYGNQYECPGLIEVPIENSDKSKWVMFLAINPGSPLGGSINQYFVGDFDGFQFVPDDSQTRFVDIGKDFYAFQTFSEVEHGVLGLAWASNWQYADQVPTNPWRSSTSLARNYTLRYVHTNAETKQLTLIQNPVLPDSINVVDKLKKKNVKLTNKKPIKTNFKGSTGLFDFNITFKVLNLNVSPGKTHFDILINSQELNSSVDSIKIGFDSSQSSFYIDRHIPNVEFPRKQFFTDKLAAYLEPLDYDQDLRVFSLYGIVDKNIIELYFNDGTVAMTNTFFMGEGKYPHDIQIVTDTEEPLFELESVIIRELNK
With B1 the “Activity corresponding to 100% in FIG. 3” value [1] was 5.59 U/ml, the “Transfructosidase activity retained (in words)” value [2] was “still maintains transfructosidase activity” and the Fructofuranosidase activity [3] was 0.33 U.
